The text below walks through data of patent US11015206B2, “Compositions and methods comprising sequences having hydroxyphenylpyruvate dioxygenase (HPPD) activity” (PIONEER HI-BRED INTERNATIONAL, INC., priority 2014, dated 2021).

One may read the Km as the substrate concentration at which the rate is half of its maximum. The kcat is the number of substrate molecules converted per active site and unit of time at saturation.

Common to all, as to assay type: biochemical, Z. mays
Series [1] has as its system 4-hydroxyphenylpyruvate dioxygenase (HPPD). Briefly: OFF rate ratio: release of inhibitor from pre-formed enzyme-inhibitor complex. A digest of the protocol: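 Inhibitor release from pre-formed complex (enzyme 7.2 μM, inhibitor 8 μM, 1 h RT) tracked as accelerating HPPD activity at 320 nm over 12 min, coupled via 50 nM HGD with 100 μM HPP at pH 7. OFF rate ratio: steady-state velocity relative to uninhibited initial velocity.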

For series [2] the test system is unchanged. Briefly: HPPD activity coupled assay with HGD; substrate saturation kinetic parameters (kcat, KM). On the procedure:
Wild type and shuffled variant genes were cloned into pVER7062, a modified version of pET24a(+)(Novagen), which places six histidine residues at the N-terminus of the expressed protein. Vectors were electroporated into E. coli host strain BL21(DE3). Cells were grown at 30 C in rich medium such as 2×YT containing the selection antibiotic, kanamycin. At a density of about 0.6 OD600, IPTG was added to 0.2 mM, the temperature was reduced to 16 C and growth continued for another 24 hrs. Cells were harvested by centrifugation and stored at −80 C. Cell pellets were lysed in BPER (Pierce) protein extraction reagent containing 0.2 mg/ml lysozyme, 1 mM dithiothreitol, protease inhibitor cocktail (Sigma, bacterial cocktail) and endonuclease. Insoluble cellular debris was removed by centrifugation. HPPD protein was purified from the soluble protein solution by affinity chromatography on the nickel form of nitrilotriacetic acid (Ni-NTA) resin (Qiagen). Protein concentrations were determined by the Bradford method, as supplied by Bio-Rad.
HPPD catalyzes the conversion of 4-hydroxyphenylpyruvate (HPP) to homogentisate (FIG. 17). […] However, the product of the ensuing reaction in tyrosine metabolism, maleylacetoacetate, absorbs strongly at 320 nm. Furthermore, the enzyme catalyzing that reaction is also a dioxygenase having similar mechanism and buffer requirements as HPPD, making homogentisate dioxygenase (HGD) an ideal partner in a coupled assay, as shown.
The HDG gene from Pseudomonas aeruginosa (Amaya (2004) Arch Biochem Biophys 421, 135-142) was cloned into pVER7062 and electroporated into E. coli strain BL21(DE3). The enzyme was produced by methods similar to those described for HPPD. The purified enzyme has a KM for homogentisate of 23 μM and a kcat of 100/sec, properties highly suited for instantly converting the homogentisate produced by HPPD to maleylacetoacetate.
HPPD activity was measured by placing an aliquot (e.g., 6 μl) of the substrate HPP at 50-fold the desired final concentration into the wells of a low UV-absorbing assay plate. Reactions were started by adding a mixture (e.g., 294 μl) containing 25 mM Hepes, pH 7, 2 mM ascorbate, 10 μM FeSO4, 1 to 100 μM HPP, 50 nM HGD and 5 to 240 nM HPPD. Absorbance at 320 nm was monitored continuously in a plate-reading spectrophotometer (Spectramax, Molecular Devices).
The catalytic performance of wild-type HPPD and variants generated by shuffling was assessed by determining the substrate saturation kinetic parameters. The Michaelis-Menten kinetics protocol of the Spectramax software was customized for HPP concentrations ranging from 3.33 μM to 100 μM. Reaction rates were measured as described above for each concentration of HPP. The software returns values of KM and Vmax using the Lineweaver-Burke transformation of the Michaelis-Menten equation.

Series [3] shares this test system. The series can be described thus: ON rate ratio: HPPD reaction rate with vs without inhibitor in the 70 to 90 second interval. Particulars: for ON rate ratio: mesotrione. A digest of the protocol: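 Indicator of inhibitor on-rate: reaction velocity in the 70 to 90 second window with 4 μM inhibitor divided by that without. Reactions contained 100 μM HPP and 60 or 120 nM HPPD; slower binding gives a larger ratio.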

For series [4] the test system is unchanged. The series can be described thus: Insensitivity parameter (ON × OFF) and trait fitness (ON × OFF × kcat/KM or × kcat). Particulars: for Fitness Fold vs Zm wt / Insensitivity parameter, ON × OFF / Insensitivity ON × OFF, Fold vs wt: mesotrione; for Insensitivity parameter, ON × OFF: Table 2; for Insensitivity ON × OFF, Fold vs wt: vs maize wild type. The procedure, abridged: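 Trait fitness combines catalysis and insensitivity as kcat/KM × ON rate ratio × OFF rate ratio. The insensitivity parameter is the product of ON and OFF rate ratios, used in place of KD because the ON rate ratio is inverse.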

For series [5] the test system is unchanged. The series can be described thus: Estimate of kcat from initial rate at saturating hydroxyphenylpyruvate without inhibitor (ON rate ratio assay). Particulars: Megatable 2; single substitutions, positions numbered per SEQ ID NO:1. The procedure, abridged: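 kcat was estimated from the initial reaction rate with known enzyme level (60 or 120 nM HPPD). Hydroxyphenylpyruvate was at a saturating 100 μM, with no inhibitor present.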

The mark [6] stands for this setting: Table 2, E. coli purified proteins.

B1: R8-1973: Round 8, variant 1973 (SEQ ID NO:8), 26 amino acid substitutions relative to native maize HPPD (protein)
chain: MGPTPTATAAGAAVAAASAAEQAAFRLVGHRNFVRFNPRSDRFQTLAFHHVELWCADAASAAGRFSFALGVPLAARSDLSTGNSAHASLLLRSGSLSLLFTAPYAHGADAATAALPSFSAAAARRFAADHGLAVRAVALRVADAEDAFRASVAAGARPAFGPVDLGRGFRLAEVELYGDVVLRYVSYPDGAAGEPFLPGFEGVASPGAADLGLNRFDHIVGNVPELAPAAAYMAGFTGFHEFAEFTTEDVGTTESGLNSMALANNSENVLLPLNEPVHGTKRRSQIQTFLDHHGGPGVQHIALASDDVLRTLREMRARSAMGGFEFLPPPLSDYYDGVRKCAGDVLTEAQINECQELGVMVDRDDEGVLLQIFTKPVGDRPTFFLEIIQRIGCREKDEKGQEYQKGGCGGFGKGNFGQLFKSIEDYEKSLEKKRAAAAATAQGS
modifications: Zea mays variant form created by artificial means.
In the case of B1, the OFF rate ratio in series [1] (mesotrione) was found to be 1.00. Further, in series [2] (setting [6]), the Km was 2 µM and the kcat was found to be 1.18 s⁻¹. Besides, in series [3], the ON rate ratio is listed as 0.73. Also, in series [4], the “Fitness Fold vs Zm wt” value is recorded as 12.2; the “Insensitivity parameter, ON × OFF” value came out at 0.73; the “Insensitivity ON × OFF, Fold vs wt” value turned out to be 11.9.

B2: G. max wt: wild-type HPPD enzyme from soybean (protein)
chain: MPMYTPSLSAPSSNHIQPSVTLPLYITTTKLNLKQQHHTTPMPIPMCNEIQAQAQAQAQPGFKLVGFKNFVRTNPKSDRFQVNRFHHIEFWCTDATNASRRFSWGLGMPIVAKSDLSTGNQIHASYLLRSGDLSFLFSAPYSPSLSAGSSAASSASIPSFDAATCLAFAAKHGFGVRAIALEVADAEAAFSASVAKGAEPASPPVLVDDRTGFAEVRLYGDVVLRYVSYKDAAPQAPHADPSRWFLPGFEAAASSSSFPELDYGIRRLDHAVGNVPELAPAVRYLKGFSGFHEFAEFTAEDVGTSESGLNSVVLANNSETVLLPLNEPVYGTKRKSQIETYLEHNEGAGVQHLALVTHDIFTTLREMRKRSFLGGFEFMPSPPPTYYANLHNRAADVLTVDQIKQCEELGILVDRDDQGTLLQIFTKPVGDRPTIFIEIIQRIGCMVEDEEGKVYQKGACGGFGKGNFSELFKSIEEYEKTLEAKRTA
modifications: Glycine max
notes: wild-type HPPD enzyme from soybean
For the molecule B2, the OFF rate ratio in series [1] (mesotrione) was 0.007. In series [2] (setting [6]), the Km came to 3 µM and the kcat is 1.67 s⁻¹. In addition, in series [3], the ON rate ratio was 0.20. In addition, in series [4], the “Fitness Fold vs Zm wt” value worked out at 0.02; the “Insensitivity parameter, ON × OFF” value was determined as 0.0014; the “Insensitivity ON × OFF, Fold vs wt” value is on record as 0.023.

B3: SEQ ID NO:78: improved shuffled variant of maize HPPD (protein)
chain: MGPTPTATAAGAAVAAASAAEQAAFRLVGHRNFVRFNPRSDRFHTLAFHHVELWCADAASAAGRFSFALGAPLAARSDLSTGNSAHASLLLRSGSLSFLFTAPYAHGADAATAALPSFSAAAARRFAADHGLAVRAVALRVADAEDAFRASVAAGARPAFGPVDLGRGFRLAEVELYGDVVLRYVSYPDGAAGEPFLPGFEGVASPGAADYGLSRFDHIVGNVPELAPAAAYFAGFTGFHEFAEFTTEDVGTAESGLNSMALANNSENVLLPLNEPVHGTKRRSQIQTFLDHHGGPGVQHIALASDDVLRTLREMQARSAMGGFEFLPPPPSDYYDGVRRCAGDVLTEAQINECQELGVMVDRDDQGVLLQIFTKPVGDRPTFFLEIIQRIGCMEKDEKGQEYQKGGCGGFGKGNFGQLFKSIEDYEKSLEAKQAAAAATAQGS
modifications: Zea mays variant form created by artificial means.
On to B3, for which the “time span to reach the steady state (dissociation from inhibitor)” value in series [1] (mesotrione, enzyme 240 nM) was determined as 80 s. Moreover, the kcat entry in series [2] (text b374) is on record as “about 220 min^−1”.

B4: R6-9075: shuffled maize HPPD variant 9075, SEQ ID NO:79; 9070 with R316 changed to Q (protein)
chain: MGPTPTATAAGAAVAAASAAEQAAFRLVGHRNFVRFNPRSDRFQTLAFHHVELWCADAASAAGRFSFALGVPLAARSDLSTGNSAHASLLLRSGSLSLLFTAPYAHGADAATAALPSFSAAAARRFAADHGLAVRAVALRVADAEDAFRASVAAGARPAFGPVDLGRGFRLAEVELYGDVVLRYVSYPDGAAGEPFLPGFEGVASPGAADYGLSRFDHIVGNVPELAPAAAYMAGFTGFHEFAEFTTEDVGTTESGLNSMALANNSENVLLPLNEPVHGTKRRSQIQTFLDHHGGPGVQHIALASDDVLRTLREMQARSAMGGFEFLPPPLSDYYDGVRRCAGDVLTEAQINECQELGVMVDRDDQGVLLQIFTKPVGDRPTFFLEIIQRIGCMEKDEKGQEYQKGGCGGFGKGNFGQLFKSIEDYEKSLEAKQAAAAATAQGS
modifications: Zea mays variant form created by artificial means.
notes: 9070 with R316 changed to Q
Regarding B4, the OFF rate ratio in series [1] (mesotrione) was 0.68. In addition, in series [2] (setting [6]), the Km is 4 µM and the kcat came to 1.9 s⁻¹. The ON rate ratio in series [3] amounted to 0.68. Besides, in series [4], the “Fitness Fold vs Zm wt” value is reported as 6.4; the “Insensitivity parameter, ON × OFF” value was determined as 0.46; the “Insensitivity ON × OFF, Fold vs wt” value is 7.6.

B5: SEQ ID NO 2 (protein)
chain: MGPTPTATAAGAAVAAASAAEQAAFRLVGHRNFVRFNPRSDRFQTLAFHHVELWCADAASAAGRFSFALGVPLAARSDLSTGNSAHASLLLRSGSLSLLFTAPYAHGADAATAALPSFSAAAARRFAADHGLAVRAVALRVADAEDAFRASVAAGARPAFGPVDLGRGFRLAEVELYGDVVLRYVSYPDGAAGEPFLPGFEGVASPGAADYGLSRFDHIVGNVPELAPAAAYMAGFTGFHEFAEFTTEDVGTTESGLNSMALANNSENVLLPLNEPVHGTKRRSQIQTFLDHHGGPGVQHIALASDDVLRTLREMRARSAMGGFEFLPPPLSDYYDGVRRCAGDVLTEAQINECQELGVMVDRDDQGVLLQIFTKPVGDRPTFFLEIIQRIGCMEKDEKGQEYQKGGCGGFGKGNFGQLFKSIEDYEKSLEAKQAAAAATAQGS
modifications: Zea mays variant form created by artificial means.
B5: the “OFF Rat. (OFF ratio parameter)” value in series [1] (Megatable 2) amounted to 0.21. In series [3] (Megatable 2), the “ON Rat. (ON ratio parameter)” value was 0.74. In series [4] (Megatable 2), the “ON × OFF (product of ON ratio and OFF ratio)” value was 0.15; the “ON × OFF kcat (product of ON ratio, OFF ratio and kcat)” value is 5.25. Besides, the “Fold vs. wt (ON × OFF versus wild-type SEQ ID NO:1)” value in series [4] (Megatable 2, fold of ON × OFF) came out at 30.0. In addition, the “Fold vs. wt (ON × OFF × kcat versus wild-type SEQ ID NO:1)” value in series [4] (Megatable 2, fold of ON × OFF × kcat) is 4.90. In addition, in series [5], the kcat was 0.57 s⁻¹.
